Measurements reported in patent publication US20250277199, “NOVEL CRISPR-CAS NUCLEASES FROM METAGENOMES” (Brain Biotech AG, published 2025).

Biological target: T1, BMC07 (uncultured bacterium (metagenome))
T1 chain: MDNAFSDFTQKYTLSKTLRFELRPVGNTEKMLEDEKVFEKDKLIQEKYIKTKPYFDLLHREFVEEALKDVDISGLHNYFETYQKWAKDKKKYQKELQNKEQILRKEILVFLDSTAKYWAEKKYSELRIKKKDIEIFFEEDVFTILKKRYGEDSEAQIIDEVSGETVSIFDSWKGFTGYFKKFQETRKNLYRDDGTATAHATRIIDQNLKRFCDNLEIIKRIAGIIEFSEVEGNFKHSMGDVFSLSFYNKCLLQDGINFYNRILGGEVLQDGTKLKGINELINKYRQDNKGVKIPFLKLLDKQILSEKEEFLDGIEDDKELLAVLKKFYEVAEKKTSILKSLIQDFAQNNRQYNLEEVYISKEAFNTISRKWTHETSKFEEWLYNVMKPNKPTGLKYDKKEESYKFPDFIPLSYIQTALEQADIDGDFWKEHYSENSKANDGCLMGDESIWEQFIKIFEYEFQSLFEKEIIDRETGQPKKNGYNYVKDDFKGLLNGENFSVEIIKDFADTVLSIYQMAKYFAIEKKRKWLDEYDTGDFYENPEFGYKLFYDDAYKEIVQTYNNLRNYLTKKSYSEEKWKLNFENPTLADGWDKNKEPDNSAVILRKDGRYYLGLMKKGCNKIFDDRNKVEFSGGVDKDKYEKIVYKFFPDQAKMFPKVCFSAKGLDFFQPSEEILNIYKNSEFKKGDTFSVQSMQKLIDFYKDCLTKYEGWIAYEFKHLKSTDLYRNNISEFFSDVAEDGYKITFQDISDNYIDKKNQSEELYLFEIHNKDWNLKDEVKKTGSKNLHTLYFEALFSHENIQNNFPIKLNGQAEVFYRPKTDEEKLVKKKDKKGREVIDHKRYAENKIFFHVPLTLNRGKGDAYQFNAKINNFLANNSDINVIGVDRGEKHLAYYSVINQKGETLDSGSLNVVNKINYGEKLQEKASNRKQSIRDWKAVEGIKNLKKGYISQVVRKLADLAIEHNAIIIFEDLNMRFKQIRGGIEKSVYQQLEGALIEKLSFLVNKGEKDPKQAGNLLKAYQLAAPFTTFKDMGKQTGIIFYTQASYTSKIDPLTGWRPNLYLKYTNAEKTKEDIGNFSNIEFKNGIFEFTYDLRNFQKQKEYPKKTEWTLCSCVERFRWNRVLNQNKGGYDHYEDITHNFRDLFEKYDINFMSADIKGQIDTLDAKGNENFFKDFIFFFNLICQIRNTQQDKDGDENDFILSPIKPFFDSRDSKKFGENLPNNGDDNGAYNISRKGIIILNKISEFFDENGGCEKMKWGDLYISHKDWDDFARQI
Experiment: cell_activity; PAM not stated; E. coli depletion, 30 C
In short: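 E. coli carrying arabinose-induced (0.2%) BMC nuclease, grown at 30° C., made electrocompetent and electroporated with 50-100 ng plasmid carrying gRNA against malQ. Transformants plated on selective M9-glucose agar with kanamycin/ampicillin (± nourseothricin), and growth scored after 48 h at 30° C.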

B1: malQ gRNA (BMC stem-loop + 24 nt spacer) ; malQ protospacer (ssRNA ; dsDNA)
RNA: GAUUUCUACUAUUGUAGAUGUGGCGGUACGUUGAUGCAUCGCG
DNA 1: GTGGCGGTACGTTGATGCATCGCG
DNA 2: CGCGATGCATCAACGTACCGCCAC
activity: > 99.9 % colony reduction
